What all share (test): pull-down
The subject of one series is ZCCHC3 MF R247S (human).
The subject of another series is ZCCHC3 MF R168S (human).
Series [1] concerns the target T1, ZCCHC3 MF R168/247S R168S;R247S (human) (UniProt Q9NUD5).
T1 sequence: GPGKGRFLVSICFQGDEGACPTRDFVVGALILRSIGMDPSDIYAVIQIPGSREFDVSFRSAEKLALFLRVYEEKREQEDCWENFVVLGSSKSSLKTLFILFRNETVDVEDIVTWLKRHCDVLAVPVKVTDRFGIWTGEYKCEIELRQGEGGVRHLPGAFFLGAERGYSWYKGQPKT

For the substance HIV-1 LTR (R-U5) RNA, the binding signal in the series on ZCCHC3 MF R247S (human) was 50 % of WT MF; with ZCCHC3 MF R168S (human), 50 % of WT MF; in series [1], 15 % of WT MF.

The record behind these values is paper doi:10.1101/2023.06.14.544911.
